B1: DNA damage checkpoint control protein RAD17 (Saccharomyces cerevisiae), P48581 (parent)
chain: MRINSELANKFSASTVHLEHITTALSCLTPFGSKDDVLIFIDADGLSFVRENNHVIKIQLLLSRELFMSYSYRNETEDHMKLCVKINHILDSVSVMNRNSDDIVECTLSYDGHGSPFVLIFEDSFISERVEYSTYLIKDFDTNGLELDRERISFEAIIKGEALHSALKDLKEIGCKECYVYAKTEANDENVFALISKSQLGFSKIKLPSNRSILEKLQVFDGDSTTVIDGFAVIGFFDFTSFDKIRKSTKIASKVLFRMDVHGVLSVNILSQTDDVIITDTTRPSNNRPGSIRQLQLPKDYPGIVIEVCMLEKESIDEAAQTEIELLMETNELGNRNSFKKSTIRKRYGTDKGNETSNDNLLQLNGKKIKLPSEEENNKNRESEDEENHCKYPTKDIPIFF
partner: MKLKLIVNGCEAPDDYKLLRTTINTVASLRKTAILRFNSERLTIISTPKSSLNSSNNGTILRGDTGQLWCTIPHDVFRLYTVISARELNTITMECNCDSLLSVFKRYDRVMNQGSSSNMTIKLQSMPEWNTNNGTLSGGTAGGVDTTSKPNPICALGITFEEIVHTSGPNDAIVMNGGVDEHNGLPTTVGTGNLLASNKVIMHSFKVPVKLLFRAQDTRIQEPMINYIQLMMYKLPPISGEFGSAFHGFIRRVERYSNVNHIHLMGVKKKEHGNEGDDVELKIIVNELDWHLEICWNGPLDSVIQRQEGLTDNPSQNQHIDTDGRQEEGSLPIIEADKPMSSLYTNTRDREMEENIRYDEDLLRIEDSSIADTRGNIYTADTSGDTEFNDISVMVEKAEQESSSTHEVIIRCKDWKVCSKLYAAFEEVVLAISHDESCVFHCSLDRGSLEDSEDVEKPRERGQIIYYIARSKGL

Variants of: B1
Conditions: with mec3_yeast MEC3, Q02574

Row | effect of a mutation on the interaction | Variant
1 | decreasing interaction | E128K

— IntAct's records for PubMed 9891048
